Source: PMC7617670, “Activity Regulation of a Glutamine Amidotransferase Bienzyme Complex by Substrate-Induced Subunit Interface Expansion” (ACS catalysis, 2025)

Tests used:
[1] = biological target: T1, PabB, synthase subunit of aminodeoxychorismate synthase (ADCS) from Escherichia coli, wild type (Escherichia coli, UniProt P05041 1-453); experiment: ITC; 250 μM PabB titrated into 25 μM PabA in the cell; 25 °C; 50 mM Tris/HCl pH 7.5, 50 mM KCl, 5 mM MgCl2; without Cho and Gln; one set of sites; details: both partners purified
T1 construct: PabB, synthase subunit of ADCS, E. coli; the gene was cloned into pET28a; Form used for SEC, ITC and kinetics; TEV cleavage is told only of the proteins used for crystallization; also called wt PabB; ADCS synthase subunit; source: E. coli BL21-Gold (DE3), purified (Ni-IMAC, preparative gel filtration)
T1 sequence: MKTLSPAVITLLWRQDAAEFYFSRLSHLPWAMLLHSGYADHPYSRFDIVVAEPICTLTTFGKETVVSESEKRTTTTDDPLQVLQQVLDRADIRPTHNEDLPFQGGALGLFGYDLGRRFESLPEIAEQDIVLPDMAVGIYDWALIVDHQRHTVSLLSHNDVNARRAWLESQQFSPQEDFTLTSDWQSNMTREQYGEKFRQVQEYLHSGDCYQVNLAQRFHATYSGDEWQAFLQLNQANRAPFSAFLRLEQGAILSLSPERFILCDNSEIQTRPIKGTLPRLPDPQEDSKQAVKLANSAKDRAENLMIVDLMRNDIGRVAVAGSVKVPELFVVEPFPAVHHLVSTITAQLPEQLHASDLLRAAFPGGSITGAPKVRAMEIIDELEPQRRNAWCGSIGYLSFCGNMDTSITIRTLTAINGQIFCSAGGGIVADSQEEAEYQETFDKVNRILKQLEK

PabB variant bD308E = biological target: T2, PabB variant bD308E (Escherichia coli, UniProt P05041 1-453, bD308E); experiment: as above; details: both partners purified
T2 construct: PabB, synthase subunit of ADCS, E. coli; construct as m2 with one exchange; Made by QuikChange mutagenesis from the construct of m2; source: E. coli BL21-Gold (DE3), purified (Ni-IMAC, preparative gel filtration)
T2 sequence: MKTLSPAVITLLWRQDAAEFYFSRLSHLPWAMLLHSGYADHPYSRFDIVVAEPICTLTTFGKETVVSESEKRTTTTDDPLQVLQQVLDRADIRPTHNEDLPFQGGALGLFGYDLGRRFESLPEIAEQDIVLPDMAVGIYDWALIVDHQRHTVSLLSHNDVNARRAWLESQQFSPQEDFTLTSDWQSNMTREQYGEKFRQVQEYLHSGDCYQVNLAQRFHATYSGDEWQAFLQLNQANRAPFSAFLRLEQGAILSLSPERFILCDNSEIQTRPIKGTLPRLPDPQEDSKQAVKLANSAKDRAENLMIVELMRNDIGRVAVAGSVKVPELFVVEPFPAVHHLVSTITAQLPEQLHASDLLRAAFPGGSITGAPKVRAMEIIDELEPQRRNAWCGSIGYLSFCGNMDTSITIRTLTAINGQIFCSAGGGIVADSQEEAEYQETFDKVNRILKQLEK

Kd [1]: 160 nM
Kd (PabB variant bD308E): 1700 nM
B1: PabA, glutaminase subunit of aminodeoxychorismate synthase (ADCS) from Escherichia coli, wild type (enzyme)
chain: MILLIDNYDSFTWNLYQYFCELGADVLVKRNDALTLADIDALKPQKIVISPGPCTPDEAGISLDVIRHYAGRLPILGVCLGHQAMAQAFGGKVVRAAKVMHGKTSPITHNGEGVFRGLANPLTVTRYHSLVVEPDSLPACFDVTAWSETREIMGIRHRQWDLEGVQFHPESILSEQGHQLLANFLHR
notes: PabA, class I glutaminase subunit of ADCS, E. coli; the gene was cloned into pET28a; Form used for SEC, ITC and kinetics; TEV cleavage is told only of the proteins used for crystallization; The G5H-Tag stands between the TEV site and the start methionine of PabA; also called wt PabA; ADCS glutaminase subunit; source: E. coli BL21-Gold (DE3), purified (Ni-IMAC, preparative gel filtration)
